# Measurements reported in US20170190753A1 (LABORATOIRE FRANCAIS DU FRACTIONNEMENT ET DES …, published 2017).
# Target: C3 convertase complex (UniProt P01024 23-1663; P00751 260-764)
# Test: cell-based or functional assay
# Wherever C3 convertase activity % of the control is given: test concentration or dose not given here.
# C3 convertase complex, sequence (P01024 23-1663, chain 1 of 2): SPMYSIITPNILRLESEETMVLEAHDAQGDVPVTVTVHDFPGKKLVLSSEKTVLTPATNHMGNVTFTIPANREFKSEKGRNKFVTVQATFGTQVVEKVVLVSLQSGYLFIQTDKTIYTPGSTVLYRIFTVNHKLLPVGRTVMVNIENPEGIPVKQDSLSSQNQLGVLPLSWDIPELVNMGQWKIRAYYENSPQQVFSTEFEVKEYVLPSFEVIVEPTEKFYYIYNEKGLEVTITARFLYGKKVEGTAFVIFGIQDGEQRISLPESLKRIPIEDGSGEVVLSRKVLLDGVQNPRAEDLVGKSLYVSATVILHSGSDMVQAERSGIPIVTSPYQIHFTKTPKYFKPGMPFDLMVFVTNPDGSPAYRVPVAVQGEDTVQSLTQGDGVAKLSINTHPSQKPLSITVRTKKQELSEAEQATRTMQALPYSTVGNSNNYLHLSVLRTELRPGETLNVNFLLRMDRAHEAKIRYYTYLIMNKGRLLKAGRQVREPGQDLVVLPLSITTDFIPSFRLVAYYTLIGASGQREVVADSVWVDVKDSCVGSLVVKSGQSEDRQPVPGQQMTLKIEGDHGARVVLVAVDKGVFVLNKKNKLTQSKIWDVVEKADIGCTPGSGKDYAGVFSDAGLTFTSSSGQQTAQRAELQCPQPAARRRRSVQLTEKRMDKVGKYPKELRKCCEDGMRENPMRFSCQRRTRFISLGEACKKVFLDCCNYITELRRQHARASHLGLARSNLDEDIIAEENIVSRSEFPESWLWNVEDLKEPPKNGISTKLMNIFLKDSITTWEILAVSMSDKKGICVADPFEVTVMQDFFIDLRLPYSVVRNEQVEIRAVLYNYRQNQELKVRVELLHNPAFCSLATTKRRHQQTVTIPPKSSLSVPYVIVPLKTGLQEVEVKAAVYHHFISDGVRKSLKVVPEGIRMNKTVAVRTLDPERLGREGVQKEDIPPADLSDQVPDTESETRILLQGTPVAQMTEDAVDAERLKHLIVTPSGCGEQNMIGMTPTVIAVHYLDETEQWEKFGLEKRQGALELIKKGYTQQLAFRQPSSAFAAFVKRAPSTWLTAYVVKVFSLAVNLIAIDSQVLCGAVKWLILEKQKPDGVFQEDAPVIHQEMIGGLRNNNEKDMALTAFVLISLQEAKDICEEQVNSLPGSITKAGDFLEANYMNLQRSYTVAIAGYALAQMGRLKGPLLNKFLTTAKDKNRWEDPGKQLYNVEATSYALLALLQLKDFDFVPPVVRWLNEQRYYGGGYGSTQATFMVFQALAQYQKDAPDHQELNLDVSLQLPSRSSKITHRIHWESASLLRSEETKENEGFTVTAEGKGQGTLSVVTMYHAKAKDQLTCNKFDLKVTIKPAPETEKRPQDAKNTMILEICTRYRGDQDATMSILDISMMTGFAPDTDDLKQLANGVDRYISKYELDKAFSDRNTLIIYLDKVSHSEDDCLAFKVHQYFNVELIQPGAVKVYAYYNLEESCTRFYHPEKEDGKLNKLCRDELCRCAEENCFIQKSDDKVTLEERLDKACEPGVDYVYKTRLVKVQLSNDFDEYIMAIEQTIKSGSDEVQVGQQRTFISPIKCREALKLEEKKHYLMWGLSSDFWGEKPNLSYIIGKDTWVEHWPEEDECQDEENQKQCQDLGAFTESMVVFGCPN
# C3 convertase complex, sequence (P00751 260-764, chain 2 of 2): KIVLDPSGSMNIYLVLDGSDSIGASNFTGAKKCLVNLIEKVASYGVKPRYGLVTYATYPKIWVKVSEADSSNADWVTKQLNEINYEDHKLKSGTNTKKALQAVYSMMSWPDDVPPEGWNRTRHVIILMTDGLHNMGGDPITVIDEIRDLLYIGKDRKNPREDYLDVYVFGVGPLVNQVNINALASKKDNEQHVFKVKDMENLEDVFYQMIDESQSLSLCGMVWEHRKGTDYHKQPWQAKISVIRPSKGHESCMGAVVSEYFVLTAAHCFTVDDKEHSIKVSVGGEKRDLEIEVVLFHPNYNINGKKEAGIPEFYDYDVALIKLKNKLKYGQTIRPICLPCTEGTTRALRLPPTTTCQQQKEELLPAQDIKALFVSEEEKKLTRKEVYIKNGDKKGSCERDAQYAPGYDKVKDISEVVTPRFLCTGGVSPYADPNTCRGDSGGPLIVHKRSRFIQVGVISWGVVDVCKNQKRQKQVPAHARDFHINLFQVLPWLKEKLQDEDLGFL
Binder,C3 convertase activity % of the control,C3 convertase activity IC50 [µg/mL]
pCEP4-1NT7-13CT20 (other) EDCNELPPRRNTEILTGSWSDQTYPEGTQAIYKCRPGYRSLGNVIMVCRKGEWVALNPLRKCQKRPCGHPGDTPFGTFTLTGGNVFEYGVKAVYTCNEGYQLLGEINYRECDTDGWTNDIPICEVVKCLPVTAPENGKIVSSAMEPDREYHFGQAVRFVCNSGYKIEGDEEMHCSDDGFWSKEKPKCVEISCKSPDVINGSPISQKIIYKENERFQYKCNMGYEYSERGDAVCTESGWRPLPSCEEKSCDNPYIPNGDYSPLRIKHRTGDEITYQCRNGFYPATRGNTAKCTSTGWIPAPRCTLKPCDYPDIKHGGLYHENMRRPYFPVAVGKYYSYYCDEHFETPSGSYWDHIHCTQDGWSPAVPCLRKCYFPYLENGYNQNYGRKFVQGKSIDVACHPGYALPKAQTTVTCMENGWSPTPRCIRVKTGASGCKSSNLIILEEHLKNKKEFDHNSNIRYRCRGKEGWIHTVCINGRWDPEVNCSMAQIQLCPPPPQIPNSHNMTTTLNYRDGEKVSVLCQENYLIQEGEEITCKDGRWQSIPLCVEKIPCSQPPQIEHGTINSSRSSQESYAHGTKLSYTCEGGFRISEENETTCYMGKWSSPPQCEGLPCKSPPEISHGVVAHMSDSYQYGEEVTYKCFEGFGIDGPAIAKCLGEKWSHPPSCIKTDCLSLPSFENAIPMGEKKDVYKAGEQVTYTCATYYKMDGASNVTCINSRWTGRPTCRDTSCVNPPTVQNAYIVSRQMSKYPSGERVRYQCRSPYEMFGDEEVMCLNGNWTEPPQCKDSTGKCGPPPPIDNGDITSFPLSVYAPASSVEYQCQNLYQLEGNKRITCRNGQWSEPPKCLHPCVISREIMENYNIALRWTAKQKLYSRTGESVEFVCKRGYRLSSRSHTLRTTCWDGKLEYPTCAKRGGSGHHHHHH,7 % of the control,1.93
pCEP4-1NT7-12CT20 (other) EDCNELPPRRNTEILTGSWSDQTYPEGTQAIYKCRPGYRSLGNVIMVCRKGEWVALNPLRKCQKRPCGHPGDTPFGTFTLTGGNVFEYGVKAVYTCNEGYQLLGEINYRECDTDGWTNDIPICEVVKCLPVTAPENGKIVSSAMEPDREYHFGQAVRFVCNSGYKIEGDEEMHCSDDGFWSKEKPKCVEISCKSPDVINGSPISQKIIYKENERFQYKCNMGYEYSERGDAVCTESGWRPLPSCEEKSCDNPYIPNGDYSPLRIKHRTGDEITYQCRNGFYPATRGNTAKCTSTGWIPAPRCTLKPCDYPDIKHGGLYHENMRRPYFPVAVGKYYSYYCDEHFETPSGSYWDHIHCTQDGWSPAVPCLRKCYFPYLENGYNQNYGRKFVQGKSIDVACHPGYALPKAQTTVTCMENGWSPTPRCIRVKTGASGCGDIPELEHGWAQLSSPPYYYGDSVEFNCSESFTMIGHRSITCIHGVWTQLPQCVAIDKLKKCKSSNLIILEEHLKNKKEFDHNSNIRYRCRGKEGWIHTVCINGRWDPEVNCSMAQIQLCPPPPQIPNSHNMTTTLNYRDGEKVSVLCQENYLIQEGEEITCKDGRWQSIPLCVEKIPCSQPPQIEHGTINSSRSSQESYAHGTKLSYTCEGGFRISEENETTCYMGKWSSPPQCEGLPCKSPPEISHGVVAHMSDSYQYGEEVTYKCFEGFGIDGPAIAKCLGEKWSHPPSCIKTDCLSLPSFENAIPMGEKKDVYKAGEQVTYTCATYYKMDGASNVTCINSRWTGRPTCRDTSCVNPPTVQNAYIVSRQMSKYPSGERVRYQCRSPYEMFGDEEVMCLNGNWTEPPQCKDSTGKCGPPPPIDNGDITSFPLSVYAPASSVEYQCQNLYQLEGNKRITCRNGQWSEPPKCLHPCVISREIMENYNIALRWTAKQKLYSRTGESVEFVCKRGYRLSSRSHTLRTTCWDGKLEYPTCAKRGGSGHHHHHH,7 % of the control,2.04
pCEP4-1NT8-10CT20 (other) EDCNELPPRRNTEILTGSWSDQTYPEGTQAIYKCRPGYRSLGNVIMVCRKGEWVALNPLRKCQKRPCGHPGDTPFGTFTLTGGNVFEYGVKAVYTCNEGYQLLGEINYRECDTDGWTNDIPICEVVKCLPVTAPENGKIVSSAMEPDREYHFGQAVRFVCNSGYKIEGDEEMHCSDDGFWSKEKPKCVEISCKSPDVINGSPISQKIIYKENERFQYKCNMGYEYSERGDAVCTESGWRPLPSCEEKSCDNPYIPNGDYSPLRIKHRTGDEITYQCRNGFYPATRGNTAKCTSTGWIPAPRCTLKPCDYPDIKHGGLYHENMRRPYFPVAVGKYYSYYCDEHFETPSGSYWDHIHCTQDGWSPAVPCLRKCYFPYLENGYNQNYGRKFVQGKSIDVACHPGYALPKAQTTVTCMENGWSPTPRCIRVKTCSKSSIDIENGFISESQYTYALKEKAKYQCKLGYVTADGETSGSITCGKDGWSAQPTCIKSGASGCELPKIDVHLVPDRKKDQYKVGEVLKFSCKPGFTIVGPNSVQCYHFGLSPDLPICKEQVQSCGPPPELLNGNVKEKTKEEYGHSEVVEYYCNPRFLMKGPNKIQCVDGEWTTLPVCIVEESTCGDIPELEHGWAQLSSPPYYYGDSVEFNCSESFTMIGHRSITCIHGVWTQLPQCVAIDKLKKCKSSNLIILEEHLKNKKEFDHNSNIRYRCRGKEGWIHTVCINGRWDPEVNCSMAQIQLCPPPPQIPNSHNMTTTLNYRDGEKVSVLCQENYLIQEGEEITCKDGRWQSIPLCVEKIPCSQPPQIEHGTINSSRSSQESYAHGTKLSYTCEGGFRISEENETTCYMGKWSSPPQCEGLPCKSPPEISHGVVAHMSDSYQYGEEVTYKCFEGFGIDGPAIAKCLGEKWSHPPSCIKTDCLSLPSFENAIPMGEKKDVYKAGEQVTYTCATYYKMDGASNVTCINSRWTGRPTCRDTSCVNPPTVQNAYIVSRQMSKYPSGERVRYQCRSPYEMFGDEEVMCLNGNWTEPPQCKDSTGKCGPPPPIDNGDITSFPLSVYAPASSVEYQCQNLYQLEGNKRITCRNGQWSEPPKCLHPCVISREIMENYNIALRWTAKQKLYSRTGESVEFVCKRGYRLSSRSHTLRTTCWDGKLEYPTCAKRGGSGHHHHHH,107 % of the control,0.338

# Further lines, results first:
C3 convertase activity % of the control,C3 convertase activity IC50 [µg/mL],Binder
6 % of the control,1.99,pCEP4-1NT11-14CT20 (other) EDCNELPPRRNTEILTGSWSDQTYPEGTQAIYKCRPGYRSLGNVIMVCRKGEWVALNPLRKCQKRPCGHPGDTPFGTFTLTGGNVFEYGVKAVYTCNEGYQLLGEINYRECDTDGWTNDIPICEVVKCLPVTAPENGKIVSSAMEPDREYHFGQAVRFVCNSGYKIEGDEEMHCSDDGFWSKEKPKCVEISCKSPDVINGSPISQKIIYKENERFQYKCNMGYEYSERGDAVCTESGWRPLPSCEEKSCDNPYIPNGDYSPLRIKHRTGDEITYQCRNGFYPATRGNTAKCTSTGWIPAPRCTLKPCDYPDIKHGGLYHENMRRPYFPVAVGKYYSYYCDEHFETPSGSYWDHIHCTQDGWSPAVPCLRKCYFPYLENGYNQNHGRKFVQGKSIDVACHPGYALPKAQTTVTCMENGWSPTPRCIRVKTCSKSSIDIENGFISESQYTYALKEKAKYQCKLGYVTADGETSGSITCGKDGWSAQPTCIKSCDIPVFMNARTKNDFTWFKLNDTLDYECHDGYESNTGSTTGSIVCGYNGWSDLPICYERECELPKIDVHLVPDRKKDQYKVGEVLKFSCKPGFTIVGPNSVQCYHFGLSPDLPICKEQVQSCGPPPELLNGNVKEKTKEEYGHSEVVEYYCNPRFLMKGPNKIQCVDGEWTTLPVCIVEESTGASGCPPPPQIPNSHNMTTTLNYRDGEKVSVLCQENYLIQEGEEITCKDGRWQSIPLCVEKIPCSQPPQIEHGTINSSRSSQESYAHGTKLSYTCEGGFRISEENETTCYMGKWSSPPQCEGLPCKSPPEISHGVVAHMSDSYQYGEEVTYKCFEGFGIDGPAIAKCLGEKWSHPPSCIKTDCLSLPSFENAIPMGEKKDVYKAGEQVTYTCATYYKMDGASNVTCINSRWTGRPTCRDTSCVNPPTVQNAYIVSRQMSKYPSGERVRYQCRSPYEMFGDEEVMCLNGNWTEPPQCKDSTGKCGPPPPIDNGDITSFPLSVYAPASSVEYQCQNLYQLEGNKRITCRNGQWSEPPKCLHPCVISREIMENYNIALRWTAKQKLYSRTGESVEFVCKRGYRLSSRSHTLRTTCWDGKLEYPTCAKRGGSGHHHHHH
6 % of the control,1.17,pCEP4-1NT10-15CT20 (other) EDCNELPPRRNTEILTGSWSDQTYPEGTQAIYKCRPGYRSLGNVIMVCRKGEWVALNPLRKCQKRPCGHPGDTPFGTFTLTGGNVFEYGVKAVYTCNEGYQLLGEINYRECDTDGWTNDIPICEVVKCLPVTAPENGKIVSSAMEPDREYHFGQAVRFVCNSGYKIEGDEEMHCSDDGFWSKEKPKCVEISCKSPDVINGSPISQKIIYKENERFQYKCNMGYEYSERGDAVCTESGWRPLPSCEEKSCDNPYIPNGDYSPLRIKHRTGDEITYQCRNGFYPATRGNTAKCTSTGWIPAPRCTLKPCDYPDIKHGGLYHENMRRPYFPVAVGKYYSYYCDEHFETPSGSYWDHIHCTQDGWSPAVPCLRKCYFPYLENGYNQNHGRKFVQGKSIDVACHPGYALPKAQTTVTCMENGWSPTPRCIRVKTCSKSSIDIENGFISESQYTYALKEKAKYQCKLGYVTADGETSGSITCGKDGWSAQPTCIKSCDIPVFMNARTKNDFTWFKLNDTLDYECHDGYESNTGSTTGSIVCGYNGWSDLPICYERECELPKIDVHLVPDRKKDQYKVGEVLKFSCKPGFTIVGPNSVQCYHFGLSPDLPICKEQVQSGASGCSQPPQIEHGTINSSRSSQESYAHGTKLSYTCEGGFRISEENETTCYMGKWSSPPQCEGLPCKSPPEISHGVVAHMSDSYQYGEEVTYKCFEGFGIDGPAIAKCLGEKWSHPPSCIKTDCLSLPSFENAIPMGEKKDVYKAGEQVTYTCATYYKMDGASNVTCINSRWTGRPTCRDTSCVNPPTVQNAYIVSRQMSKYPSGERVRYQCRSPYEMFGDEEVMCLNGNWTEPPQCKDSTGKCGPPPPIDNGDITSFPLSVYAPASSVEYQCQNLYQLEGNKRITCRNGQWSEPPKCLHPCVISREIMENYNIALRWTAKQKLYSRTGESVEFVCKRGYRLSSRSHTLRTTCWDGKLEYPTCAKRGGSGHHHHHH
8 % of the control,1.21,pCEP4-1NT11-16CT20 (other) EDCNELPPRRNTEILTGSWSDQTYPEGTQAIYKCRPGYRSLGNVIMVCRKGEWVALNPLRKCQKRPCGHPGDTPFGTFTLTGGNVFEYGVKAVYTCNEGYQLLGEINYRECDTDGWTNDIPICEVVKCLPVTAPENGKIVSSAMEPDREYHFGQAVRFVCNSGYKIEGDEEMHCSDDGFWSKEKPKCVEISCKSPDVINGSPISQKIIYKENERFQYKCNMGYEYSERGDAVCTESGWRPLPSCEEKSCDNPYIPNGDYSPLRIKHRTGDEITYQCRNGFYPATRGNTAKCTSTGWIPAPRCTLKPCDYPDIKHGGLYHENMRRPYFPVAVGKYYSYYCDEHFETPSGSYWDHIHCTQDGWSPAVPCLRKCYFPYLENGYNQNHGRKFVQGKSIDVACHPGYALPKAQTTVTCMENGWSPTPRCIRVKTCSKSSIDIENGFISESQYTYALKEKAKYQCKLGYVTADGETSGSITCGKDGWSAQPTCIKSCDIPVFMNARTKNDFTWFKLNDTLDYECHDGYESNTGSTTGSIVCGYNGWSDLPICYERECELPKIDVHLVPDRKKDQYKVGEVLKFSCKPGFTIVGPNSVQCYHFGLSPDLPICKEQVQSCGPPPELLNGNVKEKTKEEYGHSEVVEYYCNPRFLMKGPNKIQCVDGEWTTLPVCIVEESTGASGCKSPPEISHGVVAHMSDSYQYGEEVTYKCFEGFGIDGPAIAKCLGEKWSHPPSCIKTDCLSLPSFENAIPMGEKKDVYKAGEQVTYTCATYYKMDGASNVTCINSRWTGRPTCRDTSCVNPPTVQNAYIVSRQMSKYPSGERVRYQCRSPYEMFGDEEVMCLNGNWTEPPQCKDSTGKCGPPPPIDNGDITSFPLSVYAPASSVEYQCQNLYQLEGNKRITCRNGQWSEPPKCLHPCVISREIMENYNIALRWTAKQKLYSRTGESVEFVCKRGYRLSSRSHTLRTTCWDGKLEYPTCAKRGGSGHHHHHH
